The record followed here is patent US20230055005A1 (ROCHE DIAGNOSTICS OPERATIONS, published 2023).

Holding throughout (assay): ECL assay (Elecsys 2010), ruthenylated antibody and biotinylated peptide, streptavidin beads
The target in assay [1] is Bi-SEQ ID NO: 2, *H**Glu(Bi-PEG)*NLERECVGlaETCSYEEA*NH2.
The target of assay [2] is T1, Bi-SEQ ID NO: 1, *H**Glu(Bi-PEG)*NLERECVEETCSYEEA*NH2 (disulfide 6-11 (inferred)).
T1 construct: Synthetic peptide
T1 peptide: {Glu(Bi-PEG)}-NLERECVEETCSYEEA-NH2
On the procedure: (§1) An Elecsys 2010 immunoanalyzer was used to determine the reactivity of selected anti-PIVKA-II antibodies with the above peptide as follows:
(§2) 50 μL of ruthenylated anti-PIVKA-II antibody (300 ng/mL in assay buffer—s. example 2.4) were reacted with 50 μL of biotinylated peptide (2.5 ng/mL in assay buffer) and 70 μL assay-buffer in a first step, and incubated at 37° C. for 9 min. After addition of 30 μL streptavidin coated paramagnetic Elecsys® beads (0.7 mg/mL; see example 2.4) and a second incubation step (37° C., 9 min), the reaction mixture was aspirated into the measuring cell where the microparticles are magnetically captured onto the surface of the measuring-electrode. Unbound substances are removed with ProCell system-buffer (Roche Diagnostics GmbH, Germany). Application of a voltage to the electrode then induces electrochemiluminescense-based emission of light which is measured by a photomultiplier.

The target in assay [3] is T2, Bi-SEQ ID NO: 4, *H**Glu(Bi-PEG)*…laTCSYEEA*NH2 (disulfide 6-11).
T2 construct: Synthetic peptide; 12-27 of mature prothrombin with Gla at 20
T2 peptide: {Glu(Bi-PEG)(3)}-NLERECVE[Gla]TCSYEEA-NH2
On the procedure:
as §1, §2

The target in assay [4] is T3, Bi-SEQ ID NO: 3, *H**Glu(Bi-PEG)*…laEA*NH2 (disulfide 6-11; not fully specified).
T3 construct: Synthetic peptide; 12-27 of mature prothrombin with Gla at 25
T3 peptide: {Glu(Bi-PEG)″}-NLERECVEETCSY[Gla]EA-NH2
On the procedure: as §1, §2

Positions count from the first letter of the chain named. Bridge positions count the residues as written; N and C are the ends. Square brackets hold non-standard residues; d marks the D form. Primed or numbered codes have the meaning given here. Glu(Bi-PEG)″ = Nδ-(N-biotinyl-3-(2-(2-(3-aminopropyloxy)-ethoxy)-ethoxypropyl)-L-glutamine, biotin-PEG linker residue; Glu(Bi-PEG) = N-terminal added Glu carrying a biotin-linker; Glu(Bi-PEG)(3) = N-terminal added Glu biotin-linker residue; Gla = N[C@@H](CC(C(=O)O)C(=O)O)C(=O)O

B1: monoclonal anti-PIVKA-II antibody 9A6 (antibody, V domains shown)
VH: QSVEESGGRLITPGTPLTLTCTVSGFDLSRYAVGWVRQAPGKGLEYIGLIVSDGRTYYASWAKGRFTVSKTSSTTVDLKMTSPTAGDTATYYCYRNVSLWGQGTLVSVSS
VL: DVVMTQTPSSVEAAVGGTVTIKCQASQSIGSNLAWYQQKPGQPPKLLIYSASTLASGVPSRFSGSGSGTEFTLTFSGVQCGDAATYFCQSYAGVSANIFYYSFGGGTEVVVM
notes: Recombinant rabbit IgG from B-cell cloning, expressed in HEK cells
For the molecule B1, the reactivity (signal normalized to Bi-SEQ ID NO:1) in assay [1] worked out at 5%; in assay [2], 100%; in assay [3], 78%; in assay [4], 107%.

B2: monoclonal anti-PIVKA-II antibody 13H7 (antibody, V domains shown)
VH: B1 VH with I11V, G14E, V33M, V68I, T81A, A85T, G86E, S110E
VL: B1 VL with P59S, S63K, F75I, G77D, V78L, Q79E, G81A, F87Y, V94I, S102A
notes: as for B1
For B2, the reactivity (signal normalized to Bi-SEQ ID NO:1) was 5% in assay [1], 100% in assay [2], 68% in assay [3] and 107% in assay [4].

B3: monoclonal anti-PIVKA-II antibody 4E8 (antibody, V domains shown)
VH: B1 VH with I11V, V51T, S60N, A85T, G86E
VL: B1 VL with S9A, P40S, S56P, P59S, S76T
notes: as for B1
Take B3: the reactivity (signal normalized to Bi-SEQ ID NO:1) in assay [1] stood at 5%; in assay [2], 100%; in assay [3], 76%; in assay [4] it was 108%.

B4: monoclonal anti-PIVKA-II antibody 7A10 (antibody, V domains shown)
VH: QSLEESGGRLVTPGTPLTLTCTVSGIDLSTYAMGWVRQAPGKGLEYIGIIRSSGRTYYASWAKGRFTVSKTSSTTVDLSMTSPTTEDTATYYCYRNVSLWGQGTLVSVSS
VL: DVVMTQTPSSVEAAVGGTVTIKCQASQSIGNNLAWYQQKPGQRPNLLIYSASTLASGVPSRFRGSGSGTEFTLTISGVQCDDAATYYCQSYAGVSESVFWYSFGGGTGVVVK
notes: as for B1
With B4, the reactivity (signal normalized to Bi-SEQ ID NO:1) in assay [1] amounted to 4%; in assay [2], 100%; in assay [3], 68%; in assay [4], 105%.
